According to the supplement of paper PMC9732359:
± gives the uncertainty stated by the source.

Assay: protein stability index of a GFP-peptide fusion (yeast GPS) (PSI 1-4); higher = more stable; sorted into four equal gates, so the index is relative within each strain
In short: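 Sequencing reads from sorted gates were used to score each peptide. The library consisted of tiled 17-residue yeast protein peptides fused downstream of GFP on a Cherry-expressing plasmid, pooled and carried in yeast. Mid-log cultures in leucine-free medium were split into four equal gates by GFP/Cherry ratio, and each gate's plasmids were PCR-amplified and Illumina-sequenced. The protein stability index adds up, over all gates, the read frequency multiplied by the gate number.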

Sequence | protein stability index (doa10∆) | protein stability index (pdr5∆) | protein stability index (san1∆) | protein stability index (ubr1∆)
GKDRIAINVFPEGYKAK [RPO31] | 2.37 ± 0.061 | 2.28 ± 0.079 | 2.5 ± 0.07 | 2.68 ± 0.072
SSTGGGLFGNKPALGSL [YGR119C/NUP57] | 3.33 ± 0.1 | 3.44 ± 0.088 | 3.4 ± 0.048 | 3.41 ± 0.056
SISSVVSEDLLDERGHE [RPN4] | 3.11 ± 0.1 | 2.99 ± 0.096 | 2.85 ± 0.056 | 2.79 ± 0.057
EDKRKVRSAEYYAKKRA [RPL16B] | 3.31 ± 0.1 | 3.38 ± 0.089 | 3.36 ± 0.071 | 3.46 ± 0.055
NKRLDVIDGKLPFMQNA [YDL088C/ASM4] | 2.84 ± 0.053 | 2.79 ± 0.053 | 2.44 ± 0.052 | 2.19 ± 0.044
VINIAKAHPNFPIALQW [FAS1] | 2.82 ± 0.1 | 2.88 ± 0.086 | 2.25 ± 0.091 | 2.23 ± 0.076
MEFSNLYKEFFNEKFPS [NUT1] |  | 3.17 ± 0.15 | 2.98 ± 0.069 | 3.04 ± 0.1
IQPKNSDDQQEAVELVI [YML103C/NUP188] | 2.85 ± 0.19 |  | 3.4 ± 0.13 | 3.34 ± 0.12
DVNSASKSESDSQIVTP [RRP4] | 3.17 ± 0.088 | 3.28 ± 0.073 | 3.06 ± 0.099 | 2.78 ± 0.1
FHFAIEQISNNSNQQQN [SIN4] | 2.93 ± 0.061 | 2.53 ± 0.044 | 2.74 ± 0.066 | 2.9 ± 0.049
EISSQIEILVKDNECSS [RRI2] | 1.5 ± 0.11 | 1.25 ± 0.15 |  | 1.16 ± 0.069
IIKANQLILSDVDPEFY [RET1] | 1.51 ± 0.094 | 1.76 ± 0.081 | 1.6 ± 0.11 | 1.96 ± 0.081
GCLSVLYQSKGRYMEAL [SRP68] | 2.83 ± 0.13 | 3.04 ± 0.18 | 2.76 ± 0.21 | 
HDAIFSIYKYIHLNELL [SNF12] | 2.31 ± 0.051 | 2.43 ± 0.046 | 1.95 ± 0.074 | 2.01 ± 0.038
EFVNGGKVVKNVLLLDS [RRP46] | 2.42 ± 0.17 | 2.02 ± 0.069 | 1.34 ± 0.2 | 1.9 ± 0.11
NKRLCDEIATIQSKRLR [RPS17A] | 2.75 ± 0.081 | 2.94 ± 0.063 | 3.1 ± 0.046 | 3.22 ± 0.071
LSSNITFDGKPTATPSP [YMR153W/NUP53] | 2.91 ± 0.057 | 3.03 ± 0.058 | 3 ± 0.043 | 2.91 ± 0.046
TQDVFLKDFNTERVVEI [FAS2] | 3.116 ± 0.026 | 3.205 ± 0.023 | 3.211 ± 0.021 | 3.093 ± 0.019
NKSSVRPTGGANMATVP [MED6] | 2.69 ± 0.063 | 2.79 ± 0.074 | 2.71 ± 0.1 | 2.83 ± 0.057
TPLTFALPRGARTATVS [RPL14A] | 1.55 ± 0.063 | 1.5 ± 0.061 | 1.4 ± 0.1 | 1.57 ± 0.049
GSIAMARVLFDDMVEYE [CYT1] | 3.51 ± 0.18 | 3.33 ± 0.12 | 3.04 ± 0.1 | 3.35 ± 0.097
QRKNGVTNSPLFQTIEK [ECM29] | 3.29 ± 0.16 | 3.1 ± 0.14 | 2.19 ± 0.28 | 3.11 ± 0.086
EHDLLRQIRPIMERIKS [ITC1] | 1.37 ± 0.28 | 2.3 ± 0.27 |  | 
GISSAYIKSATLYSVKS [SNU114] | 1.39 ± 0.12 | 1.43 ± 0.11 | 1.67 ± 0.26 | 1.75 ± 0.17
TTLNIKVEKRVLGLTIL [SMB1] | 1.86 ± 0.075 | 2.79 ± 0.093 | 2.39 ± 0.14 | 2.27 ± 0.08
TAAIDSVVSQIEKGSTF [FAS1] | 3.1 ± 0.097 | 2.95 ± 0.078 | 3.12 ± 0.072 | 2.93 ± 0.057
PINLHPSKLVITKLHLD [RPL26A] | 1.74 ± 0.058 | 2.2 ± 0.045 | 1.9 ± 0.062 | 1.85 ± 0.042
